Test results published in patent publication US7067302B2, “DNA and amino acid sequence of a tyrosine ammonia lyase enzyme from the bacterium Rhodobacter sphaeroides” (E. I. du Pont de Nemours and Company, priority 2002, dated 2006).

Legend:
[1] = literature values; cited from earlier work
[2] = Kinetic analysis of purified RsTAL with phenylalanine (Lineweaver-Burk); type: biochemical; details: substrate phenylalanine
Description: (§1) A 500 mL culture of the E. coli BL21(DE3)RP(pKK233.RsTAL2) strain was grown in LB Broth, containing […] ampicillin to mid log phase, induced with 1 mM IPTG, and incubated overnight (18 h) in a 37° C. shaker. The cells were centrifuged and resuspended in 10 mL of Buffer A (50 mM Tris-HCl, pH 8.5 buffer, 5 mM DTT (dithiothreitol), and 1 mM tyrosine) containing one and a half EDTA-free protease inhibitor tablets (Roche Applied Science, Indianapolis, Ind.). The cells were then passed through a French Press Cell twice, and centrifuged at 18000 rpm for 20 min. Ammonium sulfate at 30% saturation was added to the […] supernatant and the resulting precipitate was removed by centrifugation. The supernatant from this first fractionation was then treated with ammonium sulfate at 50% saturation. […] The eluted fractions were analyzed for TAL activity, and the fractions containing TAL activity were pooled, precipitated again using ammonium sulfate at 50% saturation, and desalted using a 3 mL desalting column (Bio-Rad Laboratories, Hercules, Calif.). […] TAL activity was detected in the flow-through fractions. […]
The kinetic parameters of the RsTAL enzyme were characterized using'the TAL enzyme assay described above. The initial rates of the enzyme reaction were measured at tyrosine concentrations of 0.01 to 10 mM in 50 mM Tris-HCl, pH 8.5 buffer. […]

[3] = Kinetic analysis of purified RsTAL with tyrosine (Lineweaver-Burk); type: biochemical
Description: Crude cell extracts were generated by sonication of a suspension of the transformed cells, followed by centrifugation. The TAL enzyme activity of the crude cell extracts was determined by an enzyme assay using 40 μg of crude cell extract in 10 mM Tris-HCl, pH 8.5 buffer containing 1 mM tyrosine. The OD of the pHCA produced was followed at 315 nm with an extinction coefficient of […]. The results of the TAL enzyme assay are given in Table 5 in terms of activity units. A unit (U) is defined as follows: one unit of activity deaminated 1 μmol of tyrosine to pHCA per min.
as §1
The kinetic parameters of the RsTAL enzyme were characterized using'the TAL enzyme assay described above. The initial rates of the enzyme reaction were measured at tyrosine concentrations of 0.01 to 10 mM in 50 mM Tris-HCl, pH 8.5 buffer. The values of kcat and Km of the RsTAL enzyme for both tyrosine and phenylalanine were determined using Lineweaver-Burk analysis and the results are given in Table 6.

[4] = substrate tyrosine, 50 mM Tris-HCl, pH 8.5

B1: TAL enzyme from Trichosporon cutaneum: inducible TAL enzyme isolated from the yeast Trichosporon cutaneum (protein)
chain: MFIETNVAKPASTKAMNAGSAKAAPVEPFATYAHSQATKTVSIDGHTMKVGDVVAVARHGAKVELAASVAGPVRASVDFKESKKHTSIYGVTTGFGGSADTRTSDTEALQISLLEHQLCGFLPTDATYEGMLLAAMPIPIVRGAMAVRVNSCVRGHSGVRLEVLQSFADFINRGLVPCVPLRGTISASGDLSPLSYIAGAICGHPDVKVFDTAASPPTVLTSPEAIAKYGLKTVKLASKEGLGLVNGTAVSAAAGALALYDAECLAIMSQTNTVLTVEALDGHVGSFAPFIQEIRPHAGQIEAARNIRHMLGGSKLAVHEESELLADQDAGILRQDRYALRTSAQWIGPQLEALGLARQQIETELNSTTDNPLIDVEGGMFHHGGNFQAMAVTSAMDSARIVLQNLGKLSFAQVTELINCEMNHGLPSNLAGSEPSTNYHCKGLDIHCGAYCAELGFLANPMSNHVQSTEMHNQSVNSMAFASARRTMEANEVLSLLLGSQMYCATQALDLRVMEVKFKMAIVKLLNETLTKHFAAFLTPEQLAKLNTHAAITLYKRLNQTPSWDSAPRFEDAAKHLVGVIMDALMVNDDITDLTNLPKWKKEFAKEAGNLYRSILVATTADGRNDLEPAEYLGQTRAVYEAVRSELGVKVRRGDVAEGKSGKSIGSSVAKIVEAMRDGRLMGAVGKMF
modifications: T. cutaneum
**Q.** For B1, which PAL/TAL activity ratio [1] is on record?
**A.** The PAL/TAL activity ratio was 0.73.

B2: RsTAL: the TAL enzyme from Rhodobacter sphaeroides, 526 amino acids, SEQ ID NO:3 (protein)
chain: VKPMLAMSPPKPAVELDRHIDLDQAHAVASGGARIVLAPPARDRCRASEARLGAVIREARHVYGLTTGFGPLANRLISGENVRTLQANLVHHLASGVGPVLDWTTARAMVLARLVSIAQGASGASEGTIARLIDLLNSELAPAVPSRGTVGASGDLTPLAHMVLCLQGRGDFLDRDGTRLDGAEGLRRGRLQPLDLSHRDALALVNGTSAMTGIALVNAHACRHLGNWAVALTALLAECLRGRTEAWAAALSDLRPHPGQKDAAARLRARVDGSARVVRHVIAERRLDAGDIGTEPEAGQDAYSLRCAPQVLGAGFDTLAWHDRVLTIELNAVTDNPVFPPDGSVPALHGGNFMGQHVALTSDALATAVTVLAGLAERQIARLTDERLNRGLPPFLHRGPAGLNSGFMGAQVTATALLAEMRATGPASIHSISTNAANQDVVSLGTIAARLCREKIDRWAEILAILALCLAQAAELRCGSGLDGVSPAGKKLVQALREQFPPLETDRPLGQEIAALATHLLQQSPV
modifications: R. sphaeroides
**Q.** Which Km [2] does the source give for B2 here?
**A.** Its Km is 560 µM.

**Q.** And the kcat [2]?
**A.** The kcat was 0.01 s⁻¹.

**Q.** And the Km [3, 4]?
**A.** The Km was 60 µM.

**Q.** What about the kcat [3, 4] of the same molecule?
**A.** Its kcat is 0.02 s⁻¹.

**Q.** What about the “TAL/PAL Ratio” value ([3]; tyrosine versus phenylalanine as substrate) of the same molecule?
**A.** Its value is 19.

B3: wild-type PAL/TAL enzyme from the yeast Rhodosporidium: wild-type PAL/TAL enzyme from the yeast Rhodosporidium (protein, UniProt P11544 1-716, looked up)
Phenylalanine/tyrosine …: MAPSLDSISHSFANGVASAKQAVNGASTNLAVAGSHLPTTQVTQVDIVEKMLAAPTDSTLELDGYSLNLGDVVSAARKGRPVRVKDSDEIRSKIDKSVEFLRSQLSMSVYGVTTGFGGSADTRTEDAISLQKALLEHQLCGVLPSSFDSFRLGRGLENSLPLEVVRGAMTIRVNSLTRGHSAVRLVVLEALTNFLNHGITPIVPLRGTISASGDLSPLSYIAAAISGHPDSKVHVVHEGKEKILYAREAMALFNLEPVVLGPKEGLGLVNGTAVSASMATLALHDAHMLSLLSQSLTAMTVEAMVGHAGSFHPFLHDVTRPHPTQIEVAGNIRKLLEGSRFAVHHEEEVKVKDDEGILRQDRYPLRTSPQWLGPLVSDLIHAHAVLTIEAGQSTTDNPLIDVENKTSHHGGNFQAAAVANTMEKTRLGLAQIGKLNFTQLTEMLNAGMNRGLPSCLAAEDPSLSYHCKGLDIAAAAYTSELGHLANPVTTHVQPAEMANQAVNSLALISARRTTESNDVLSLLLATHLYCVLQAIDLRAIEFEFKKQFGPAIVSLIDQHFGSAMTGSNLRDELVEKVNKTLAKRLEQTNSYDLVPRWHDAFSFAAGTVVEVLSSTSLSLAAVNAWKVAAAESAISLTRQVRETFWSAASTSSPALSYLSPRTQILYAFVREELGVKARRGDVFLGKQEVTIGSNVSKIYEAIKSGRINNVLLKMLA
**Q.** With B3 as the molecule, how does the “TAL/PAL ratio (TAL catalytic activity to PAL catalytic activity)” value [1] read?
**A.** Its value is 0.58.
